Legend:
[1] = target: T1, CD30 expressed on cells (CD30-293T, SUDHL1, HDLM-2) (UniProt P28908 19-595); test: cell-based or functional assay
T1 sequence (looked up): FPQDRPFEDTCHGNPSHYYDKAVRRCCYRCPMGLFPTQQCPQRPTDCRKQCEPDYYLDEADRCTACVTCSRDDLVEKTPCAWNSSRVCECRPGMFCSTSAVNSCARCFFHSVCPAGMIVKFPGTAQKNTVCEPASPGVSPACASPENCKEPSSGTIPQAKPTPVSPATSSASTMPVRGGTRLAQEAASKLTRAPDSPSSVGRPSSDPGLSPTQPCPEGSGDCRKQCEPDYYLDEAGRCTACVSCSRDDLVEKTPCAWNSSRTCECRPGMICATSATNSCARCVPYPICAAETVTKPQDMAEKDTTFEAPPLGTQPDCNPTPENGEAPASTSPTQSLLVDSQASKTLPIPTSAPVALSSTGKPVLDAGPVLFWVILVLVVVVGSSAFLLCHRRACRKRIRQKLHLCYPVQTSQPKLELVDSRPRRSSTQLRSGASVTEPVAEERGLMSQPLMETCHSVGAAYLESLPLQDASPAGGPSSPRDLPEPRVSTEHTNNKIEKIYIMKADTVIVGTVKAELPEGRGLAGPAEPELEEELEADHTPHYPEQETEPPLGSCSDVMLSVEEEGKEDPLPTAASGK

[2] = target: T1, CD30 expressed on cells (CD30-293T, …); test: cell-based or functional assay; remark: listed apart in the source

B1: scFv CAR of anti CD30 antibody (T1-23), on CAR-T cells (other)
chain: EVQLLESGGGLVQPGGSLRLSCAASGFTFSSYSMSWVRQAPGKGLEWVSGIGYPYYTYYADSVKGRFTISRDNSKNTLYLQMNSLRAEDTAVYYCARYYYDYGFDYWGQGTLVTVSSGGGGSGGGGSGGGGSQSVLTQPPSASGTPGQRVTISCSGSSSNIGSNYVYWYQQLPGTAPKLLIYRNNQRPSGVPDRFSGSKSGTSASLAISGLRSEDEADYYCAAYRSYDYVFGGGTKLTVLGGQAGQTTTPAPRPPTPAPTIASQPLSLRPEACRPAAGGAVHTRGLDFACDIYIWAPLAGTCGVLLLSLVITLYCKRGRKKLLYIFKQPFMRPVQTTQEEDGCSCRFPEEEEGGCELRVKFSRSADAPAYQQGQNQLYNELNLGRREEYDVLDKRRGRDPEMGGKPRRKNPQEGLYNELQKDKMAEAYSEIGMKGERRRGKGHDGLYQGLSTATKDTYDALHMQALPPR
Cytotoxicity (%) against CD30-expressing cell (CD30-293T), CAR-T/Target 0.11 [1]: 7%
Cytotoxicity (%) against CD30-expressing cell (CD30-293T), CAR-T/Target 0.33 [1]: 41%
Cytotoxicity (%) against CD30-expressing cell (CD30-293T), CAR-T/Target 1 [1]: 79%
Cytotoxicity (%) against CD30-expressing cell (SUDHL1), CAR-T/Target 0.11 [2]: 37%
Cytotoxicity (%) against CD30-expressing cell (SUDHL1), CAR-T/Target 0.33 [2]: 68%
Cytotoxicity (%) against CD30-expressing cell (SUDHL1), CAR-T/Target 1 [2]: 84%

B2: scFv CAR of anti CD30 antibody (T1-2), on CAR-T cells (other)
chain: EVQLLESGGGLVQPGGSLRLSCAASGFTFSGYGMSWVRQAPGKGLEWVSYISGYSYYTYYADSVKGRFTFSRDNSKNTLYLQMNSLRAEDTAVYYCARYDGNGFDYWGQGTLVTVSSGGGGSGGGGSGGGGSQSVLTQPPSASGTPGQRVTISCSGSSSNIGSNYVYWYQQLPGTAPKLLIYRNNQRPSGVPDRFSGSKSGTSASLAISGLRSEDEADYYCAADSSDDSYVFGGGTKLTVLGGQAGQTTTPAPRPPTPAPTIASQPLSLRPEACRPAAGGAVHTRGLDFACDIYIWAPLAGTCGVLLLSLVITLYCKRGRKKLLYIFKQPFMRPVQTTQEEDGCSCRFPEEEEGGCELRVKFSRSADAPAYQQGQNQLYNELNLGRREEYDVLDKRRGRDPEMGGKPRRKNPQEGLYNELQKDKMAEAYSEIGMKGERRRGKGHDGLYQGLSTATKDTYDALHMQALPPR
Cytotoxicity (%) against CD30-expressing cell (CD30-293T), CAR-T/Target 0.11 [1]: 1%
Cytotoxicity (%) against CD30-expressing cell (CD30-293T), CAR-T/Target 0.33 [1]: 7%
Cytotoxicity (%) against CD30-expressing cell (CD30-293T), CAR-T/Target 1 [1]: 13%
Cytotoxicity (%) against CD30-expressing cell (SUDHL1), CAR-T/Target 0.11 [2]: 11%
Cytotoxicity (%) against CD30-expressing cell (SUDHL1), CAR-T/Target 0.33 [2]: 35%
Cytotoxicity (%) against CD30-expressing cell (SUDHL1), CAR-T/Target 1 [2]: 54%

B3: scFv CAR of anti CD30 antibody (T1-36), on CAR-T cells (other)
chain: EVQLLESGGGLVQPGGSLRLSCAASGFTFSYYYMSWVRQAPGKGLEWVSYIGGGGSGTYYADSVKGRFTISRDNSKNTLYLQMNSLRAEDTAVYYCARGPYYGYFDYWGQGTLVTVSSGGGGSGGGGSGGGGSQSVLTQPPSASGTPGQRVTISCSGSSSNIGSNYVYWYQQLPGTAPKLLIYRNNQRPSGVPDRFSGSKSGTSASLAISGLRSEDEADYYCAAYPSYDSYVFGGGTKLTVLGGQAGQTTTPAPRPPTPAPTIASQPLSLRPEACRPAAGGAVHTRGLDFACDIYIWAPLAGTCGVLLLSLVITLYCKRGRKKLLYIFKQPFMRPVQTTQEEDGCSCRFPEEEEGGCELRVKFSRSADAPAYQQGQNQLYNELNLGRREEYDVLDKRRGRDPEMGGKPRRKNPQEGLYNELQKDKMAEAYSEIGMKGERRRGKGHDGLYQGLSTATKDTYDALHMQALPPR
Cytotoxicity (%) against CD30-expressing cell (CD30-293T), CAR-T/Target 0.11 [1]: 21%
Cytotoxicity (%) against CD30-expressing cell (CD30-293T), CAR-T/Target 0.33 [1]: 78%
Cytotoxicity (%) against CD30-expressing cell (CD30-293T), CAR-T/Target 1 [1]: 98%
Cytotoxicity (%) against CD30-expressing cell (SUDHL1), CAR-T/Target 0.11 [2]: 48%
Cytotoxicity (%) against CD30-expressing cell (SUDHL1), CAR-T/Target 0.33 [2]: 89%
Cytotoxicity (%) against CD30-expressing cell (SUDHL1), CAR-T/Target 1 [2]: 95%

B4: scFv CAR of anti CD30 antibody (T1-10), on CAR-T cells (other)
chain: EVQLLESGGGLVQPGGSLRLSCAASGFTFSSYGMSWVRQAPGKGLEWVSYISGGSYYTYYADSVKGRFTISRDNSKNTLYLQMNSLRAEDTAVYYCARYGYGYYDGSFDYWGQGTLVTVSSGGGGSGGGGSGGGGSQSVLTQPPSASGTPGQRVTISCSGSSSNIGSNYVYWYQQLPGTAPKLLIYRNNQRPSGVPDRFSGSKSGTSASLAISGLRSEDEADYYCAADGPYNYVFGGGTKLTVLGGQAGQTTTPAPRPPTPAPTIASQPLSLRPEACRPAAGGAVHTRGLDFACDIYIWAPLAGTCGVLLLSLVITLYCKRGRKKLLYIFKQPFMRPVQTTQEEDGCSCRFPEEEEGGCELRVKFSRSADAPAYQQGQNQLYNELNLGRREEYDVLDKRRGRDPEMGGKPRRKNPQEGLYNELQKDKMAEAYSEIGMKGERRRGKGHDGLYQGLSTATKDTYDALHMQALPPR
Cytotoxicity (%) against CD30-expressing cell (CD30-293T), CAR-T/Target 0.11 [1]: 1%
Cytotoxicity (%) against CD30-expressing cell (CD30-293T), CAR-T/Target 0.33 [1]: 7%
Cytotoxicity (%) against CD30-expressing cell (CD30-293T), CAR-T/Target 1 [1]: 33%
Cytotoxicity (%) against CD30-expressing cell (SUDHL1), CAR-T/Target 0.11 [2]: 33%
Cytotoxicity (%) against CD30-expressing cell (SUDHL1), CAR-T/Target 0.33 [2]: 60%
Cytotoxicity (%) against CD30-expressing cell (SUDHL1), CAR-T/Target 1 [2]: 81%

B5: scFv CAR of anti CD30 antibody (T1-117), on CAR-T cells (other)
chain: EVQLLESGGGLVQPGGSLRLSCAASGFTFSYYGMSWVRQAPGKGLEWVSYISGYSSYTYYADSVKGRFTISRDNSKNTLYLQMNSLRAEDTAVYYCARYNDSGSFDYWGQGTLVTVSSGGGGSGGGGSGGGGSQSVLTQPPSASGTPGQRVTISCSGSSSNIGSNYVYWYQQLPGTAPKLLIYRNNQRPSGVPDRFSGSKSGTSASLAISGLRSEDEADYYCAADAGNRYVFGGGTKLTVLGGQAGQTTTPAPRPPTPAPTIASQPLSLRPEACRPAAGGAVHTRGLDFACDIYIWAPLAGTCGVLLLSLVITLYCKRGRKKLLYIFKQPFMRPVQTTQEEDGCSCRFPEEEEGGCELRVKFSRSADAPAYQQGQNQLYNELNLGRREEYDVLDKRRGRDPEMGGKPRRKNPQEGLYNELQKDKMAEAYSEIGMKGERRRGKGHDGLYQGLSTATKDTYDALHMQALPPR
Cytotoxicity (%) against CD30-expressing cell (CD30-293T), CAR-T/Target 0.11 [1]: -3%
Cytotoxicity (%) against CD30-expressing cell (CD30-293T), CAR-T/Target 0.33 [1]: -1%
Cytotoxicity (%) against CD30-expressing cell (CD30-293T), CAR-T/Target 1 [1]: -14%
Cytotoxicity (%) against CD30-expressing cell (SUDHL1), CAR-T/Target 0.11 [2]: -2%
Cytotoxicity (%) against CD30-expressing cell (SUDHL1), CAR-T/Target 0.33 [2]: 11%
Cytotoxicity (%) against CD30-expressing cell (SUDHL1), CAR-T/Target 1 [2]: 21%

B6: scFv CAR of anti CD30 antibody (T1-7), on CAR-T cells (other)
chain: EVQLLESGGGLVQPGGSLRLSCAASGFTFSGYGMSWVRQAPGKGLEWVSYISSGSYYTYYADSVKGRFTISRDNSKNTLYLQMNSLRAEDTAVYYCARYRGDNDYYGYFDYWGQGTLVTVSSGGGGSGGGGSGGGGSQSVLTQPPSASGTPGQRVTISCSCSSSNIGNNAVSWYQQLPGTAPKLLIYRNNQRPSGVPDRFSGSKSGTSASLAISGLRSEDEADYYCAADYGSDYVFGGGTKLTVLGGQAGQTTTPAPRPPTPAPTIASQPLSLRPEACRPAAGGAVHTRGLDFACDIYIWAPLAGTCGVLLLSLVITLYCKRGRKKLLYIFKQPFMRPVQTTQEEDGCSCRFPEEEEGGCELRVKFSRSADAPAYQQGQNQLYNELNLGRREEYDVLDKRRGRDPEMGGKPRRKNPQEGLYNELQKDKMAEAYSEIGMKGERRRGKGHDGLYQGLSTATKDTYDALHMQALPPR
Cytotoxicity (%) against CD30-expressing cell (CD30-293T), CAR-T/Target 0.11 [1]: -5%
Cytotoxicity (%) against CD30-expressing cell (CD30-293T), CAR-T/Target 0.33 [1]: -2%
Cytotoxicity (%) against CD30-expressing cell (CD30-293T), CAR-T/Target 1 [1]: -2%
Cytotoxicity (%) against CD30-expressing cell (SUDHL1), CAR-T/Target 0.11 [2]: 8%
Cytotoxicity (%) against CD30-expressing cell (SUDHL1), CAR-T/Target 0.33 [2]: 18%
Cytotoxicity (%) against CD30-expressing cell (SUDHL1), CAR-T/Target 1 [2]: 34%

— patent US20240392023A1 (ABCLON, published 2024)
